# Experimental data published in article PMC3419727, “Identifying the Hotspots on the Top Faces of WD40-Repeat Proteins from Their Primary Sequences by β-Bulges and DHSW Tetrads” (PLoS ONE, 2012).
# B1: S. japonicus Tup11 WD40 domain (amino acids 301–630), wild type [S. japonicus] / C-terminal region of S. pombe Fep1 (amino acids 319–564) [S. pombe] (parent complex)
# chain 1: ERTKESGQDWYAVYNEKMPKRMSIGLVHTLEHKSVVCCVRFSADGKYLATGCNRAAEIFDVQTGQKLATFEQENTNPETDLYIRSVAFSPDGKYLVTGAEDRQIRMWDIATGKVKHVFVGHEQDIYSLDYSRDGRYIVSGSGDHTARLWEAETGKCVLTLAIENGVTAVAFSPNNQFIAAGSLDQVIRVWSITGTLLKKLEGHRESVYSIAFSADGKYLASGSLDKTMRLWELKLDENAKTCSKASAISTYTGHSNFVLSVAISPNGKWAVSGSKDRSVQFWNLKTDELYLTFQGHKNSVISVCFSPDGKLFATGSGDLRARIWSIEDTA
# chain 2: AAGEPDNNGKVYYSYGPTQEQSILPLPENKHEGLPPYQNEYVPNGIRANQVVYPGQLVAVGNDSSKQLSESTTSNTDNNGVATANQSNPLGMKFHLPPILPVGESVCLPPRTSAKPRIAEGIASLLNPEEPPSNSDKQPSMSNGPKSEVSPSQSQQAPLIQSSTSPVSLQFPPEVQGSNVDKRNYALNVLSQLRSQHDLMIQELHNLNQHIQQIDEWLRSSDNENMASEHIKSSTPAVVASGALQT
# Variants of: B1
# Assay: ITC; parent: -6.6; read off a plot
row,Variant,dG
1,chain 1 D124A,~-6.9 kcal/mol
2,chain 1 C37A,~-6.2 kcal/mol
3,chain 1 L183S,~-6.8 kcal/mol
4,chain 1 I301A,~-5.4 kcal/mol
5,chain 1 L224A,~-6 kcal/mol
6,chain 1 E100A,~-6.2 kcal/mol
7,chain 1 F257A,~-5.9 kcal/mol

# More lines, now with the values ahead:
row,dG,Variant
1,~-5.6 kcal/mol,chain 1 Y208A
2,~-5.6 kcal/mol,chain 1 Y126A
3,~-5.4 kcal/mol,chain 1 R84A
4,~-6.4 kcal/mol,chain 1 T167A
